No end group written: not given here.
These binders were tested against human atypical chemokine receptor 3 (ACKR3) (human, UniProt P25106 1-362) (assay: binding competition with CXCL12-AF647, flow cytometry).
Chain of human atypical chemokine receptor 3 (ACKR3) (P25106 whole entry): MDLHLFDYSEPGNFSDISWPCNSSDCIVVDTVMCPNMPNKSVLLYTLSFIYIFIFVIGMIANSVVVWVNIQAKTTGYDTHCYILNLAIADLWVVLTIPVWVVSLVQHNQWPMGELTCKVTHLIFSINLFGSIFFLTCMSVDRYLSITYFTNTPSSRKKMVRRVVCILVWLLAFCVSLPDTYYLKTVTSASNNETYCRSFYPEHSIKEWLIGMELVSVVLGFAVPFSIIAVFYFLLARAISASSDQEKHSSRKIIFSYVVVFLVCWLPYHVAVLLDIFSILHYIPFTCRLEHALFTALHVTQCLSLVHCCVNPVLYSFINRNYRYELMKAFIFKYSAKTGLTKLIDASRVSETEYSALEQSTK
Binder YGGFLRRIRPKLKWDNQ [dynorphin A] has an IC50 of 82.7 nM.
Work on YGGFMRRVGRPEWWMDYQKRYG [BAM22] yielded an IC50 of 32.7 nM.
Binder YGGFMRRV-NH2 [adrenorphin, YGGFMRRV (SEQ ID NO: 32; NH2-substituted at C-terminus)] has an IC50 of 49 nM.
Binder YGGFLRRQFKVVT [dynorphin B] has an IC50 of 465 nM.
Work on H-FGGFMRRK-NH2 [LIH383, octapeptide FGGFMRRK (SEQ ID NO: 3; NH2-substituted at C-terminus)] yielded an IC50 of 4 nM.
With GGFLRRIRPKLK-NH2 [dynorphin 2-13 (SEQ ID NO: 20; NH2-substituted at C-terminus)] the IC50 was 20900 nM.
Work on GGFLRRIRPKLKWDNQ [dynorphin 2-17 (SEQ ID NO: 19)] yielded an IC50 of 11100 nM.
FGGFTGARKSARK-NH2 (also: reduced peptide bond ψ(CH2-NH) between Phe1 and Gly2) [Phe1ψ(CH2-NH)-Gly2-Nociceptin-1-13 amide (SEQ ID NO: 13; NH2-substituted at C-terminus)] showed an IC50 greater than 10000 nM.

— patent publication US20220236279A1 (published 2022)
